We go through 29 molecules from patent publication US20220296726A1 (Bicycle, published 2022).

*1 amine or outer side, *2 acyl side, *3 side chain or, on linkers, in order; H or OH if unused. Bridges are numbered along the chain shown (N, C = ends). Where no end group is shown, it is not given here. [ ]: non-standard residue; d: D form. TATA = O=C(CC[*:1])N1CN(C(=O)CC[*:2])CN(C(=O)CC[*:3])C1; 1Nal = N[C@@H](Cc1cccc2ccccc12)C(=O)O; 2Nal = N[C@@H](Cc1ccc2ccccc2c1)C(=O)O; hPhe = N[C@@H](CCc1ccccc1)C(=O)O; NMeA = CN[C@@H](C)C(=O)O

The chains are these.
T1: Human TREM2 extracellular domain (ECD), residues 19-131, C-terminally biotinylated, deglycosylated (human, UniProt Q9NZC2 19-131, C-terminally biotinylated; deglycosylated)
T1 construct: range 19-131; loaded on Superstreptavidin biosensors; also called triggering receptor expressed on myeloid cells 2; Human BLI (deglycosylated)
T1 sequence (looked up): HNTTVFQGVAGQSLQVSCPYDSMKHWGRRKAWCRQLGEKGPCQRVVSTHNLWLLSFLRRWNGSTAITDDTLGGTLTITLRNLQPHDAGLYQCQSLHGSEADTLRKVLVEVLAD

T2: TREM2 on human iPSC macrophages (human, UniProt Q9NZC2 19-230)
T2 sequence (looked up): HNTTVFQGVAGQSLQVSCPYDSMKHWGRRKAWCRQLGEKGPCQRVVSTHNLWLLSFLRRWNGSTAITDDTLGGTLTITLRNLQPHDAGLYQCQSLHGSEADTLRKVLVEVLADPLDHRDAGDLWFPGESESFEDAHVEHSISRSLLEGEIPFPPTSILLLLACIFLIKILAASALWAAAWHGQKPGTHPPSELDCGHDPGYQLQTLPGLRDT

B1: BCY20067 (peptide)
peptide: CSEYCFWXFYHC
modifications: N-terminal acetyl (Ac); CiSEYCiiFW[Cis-HyP]FYHCiii; Ci, Cii, Ciii on TATA scaffold
B2: BCY19671 (peptide)
peptide: CSEYCFXPFYHC
modifications: N-terminal acetyl (Ac); CiSEYCiiF[6ClTrp]PFYHCiii; Ci, Cii, Ciii on TATA scaffold
B3: BCY19672 (peptide)
peptide: Ac-CSEYCF[1Nal]P[hPhe]YHC
modifications: linker 1-5-12 via TATA
B4: BCY19783 (peptide)
peptide: ACTNYCFWPFAVCA
modifications: linker 2-6-13 via TATA
B5: BCY19303 (peptide)
peptide: Ac-CSEYCFW[NMeA]FYAC
modifications: linker 1-5-12 via TATA
B6: BCY20080 (peptide)
peptide: CSEYCFWPFXHC
modifications: N-terminal acetyl (Ac); CiSEYCiiFWPF[3tBuTyr]HCiii; Ci, Cii, Ciii on TATA scaffold
B7: BCY19293 (peptide)
peptide: Ac-CSEYCFWPFYAC
modifications: linker 1-5-12 via TATA
B8: BCY20072 (peptide)
peptide: CSEYCFWPXYHC
modifications: N-terminal acetyl (Ac); CiSEYCiiFWP[3MePhe]YHCiii; Ci, Cii, Ciii on TATA scaffold
B9: BCY20069 (peptide)
peptide: CSEYCFWXFYHC
modifications: N-terminal acetyl (Ac); CiSEYCiiFW[Pip]FYHCiii; Ci, Cii, Ciii on TATA scaffold
B10: BCY19668 (peptide)
peptide: CSEYCFWPXYHC
modifications: N-terminal acetyl (Ac); CiSEYCiiFWP[1Nal]YHCiii; Ci, Cii, Ciii on TATA scaffold
B11: BCY20068 (peptide)
peptide: CSEYCFWXFYHC
modifications: N-terminal acetyl (Ac); CiSEYCiiFW[Aze]FYHCiii; Ci, Cii, Ciii on TATA scaffold
B12: BCY19770 (peptide)
peptide: ACSNYCFWPFWQCA
modifications: linker 2-6-13 via TATA
B13: BCY19772 (peptide)
peptide: ACSNYCFWPFFQCA
modifications: linker 2-6-13 via TATA
B14: BCY19776 (peptide)
peptide: ACSEYCFWPFFLCA
modifications: linker 2-6-13 via TATA
B15: BCY19778 (peptide)
peptide: ACSEYCFWPFWQCA
modifications: linker 2-6-13 via TATA
B16: BCY19780 (peptide)
peptide: ACTNYCFWPFQSCA
modifications: linker 2-6-13 via TATA
B17: BCY19781 (peptide)
peptide: ACTNYCFWPFYSCA
modifications: linker 2-6-13 via TATA
B18: BCY19769 (peptide)
peptide: ACTNYCFWPFWSCA
modifications: linker 2-6-13 via TATA
B19: BCY19779 (peptide)
peptide: ACTNYCFWPFQYCA
modifications: linker 2-6-13 via TATA
B20: BCY19782 (peptide)
peptide: ACTNYCFWPFYLCA
modifications: linker 2-6-13 via TATA
B21: BCY20081 (peptide)
peptide: CSEYCFWPFXHC
modifications: N-terminal acetyl (Ac); CiSEYCiiFWPF[1Nal]HCiii; Ci, Cii, Ciii on TATA scaffold
B22: BCY19667 (peptide)
peptide: CSEYCFWPXYHC
modifications: N-terminal acetyl (Ac); CiSEYCiiFWP[HPhe]YHCiii; Ci, Cii, Ciii on TATA scaffold
B23: BCY19669 (peptide)
peptide: Ac-CSEYCF[1Nal]PFYHC-NH2
modifications: linker 1-5-12 via TATA
SMILES: CC(=O)N[C@H]1CSCCC(=O)N2CN3CN(C2)C(=O)CCSC[C@H](NC(=O)[C@H](Cc2ccc(O)cc2)NC(=O)[C@H](CCC(=O)O)NC(=O)[C@H](CO)NC1=O)C(=O)N[C@@H](Cc1ccccc1)C(=O)N[C@@H](Cc1cccc2ccccc12)C(=O)N1CCC[C@H]1C(=O)N[C@@H](Cc1ccccc1)C(=O)N[C@@H](Cc1ccc(O)cc1)C(=O)N[C@@H](Cc1c[nH]cn1)C(=O)N[C@H](C(N)=O)CSCCC3=O
B24: BCY19294 (peptide)
peptide: Ac-CSEYCF[1Nal]PFYAC
modifications: linker 1-5-12 via TATA
B25: BCY19296 (peptide)
peptide: Ac-CSEYCF[2Nal]PFYAC
modifications: linker 1-5-12 via TATA
B26: BCY19767 (peptide)
peptide: ACSYYCFWPFQYCA
modifications: linker 2-6-13 via TATA
B27: BCY19771 (peptide)
peptide: ACSEYCFWPFQWCA
modifications: linker 2-6-13 via TATA
B28: BCY19766 (peptide)
peptide: ACSYYCFWPFQSCA-NH2
modifications: linker 2-6-13 via TATA; N-terminus assumed
SMILES: C[C@H](N)C(=O)N[C@H]1CSCCC(=O)N2CN3CN(C2)C(=O)CCSC[C@H](NC(=O)[C@H](Cc2ccc(O)cc2)NC(=O)[C@H](Cc2ccc(O)cc2)NC(=O)[C@H](CO)NC1=O)C(=O)N[C@@H](Cc1ccccc1)C(=O)N[C@@H](Cc1c[nH]c2ccccc12)C(=O)N1CCC[C@H]1C(=O)N[C@@H](Cc1ccccc1)C(=O)N[C@@H](CCC(N)=O)C(=O)N[C@@H](CO)C(=O)N[C@H](C(=O)N[C@@H](C)C(N)=O)CSCCC3=O
B29: BCY19784 (peptide)
peptide: ACSEYCFWPFQYCA
modifications: linker 2-6-13 via TATA

The target of the first test is T1, Human TREM2 extracellular domain (ECD), …. Description: BLI steady state, deglycosylated human TREM2 ECD on sensor. The protocol:
Bio-layer interferometry was performed on an Octet RED384® system (Sartorius) at 25° C. in a buffer containing 50 mM HEPES (pH 7.5), 150 mM NaCl and 0.1% Tween. […] Reference wells containing no bicycle peptides and reference sensors loaded with an unrelated protein (His-tagged MLLT3a) were subjected to the same assay protocol and double reference subtraction was used for processing to account for non-specific binding. Traces were analysed using Octet Software (Version 11.0). Association and dissociation curves were globally fit and the response at equilibrium (Req) plotted against concentration to obtain steady-state KD values.
Broadly, the Kd is the concentration at which binding is half-saturated. A low value points to a tighter complex. For the molecule B1, the affinity, expressed as Kd, was 23600 nM. The molecule B2 displayed a Kd of 1000 nM. B3 came in with a dissociation constant Kd of 2800 nM. Regarding B4, the dissociation constant Kd amounted to 2700 nM. Still for that read-out and setting: the value for B5 was 2300 nM. Still for that read-out and setting: the value for B6 was 375 nM.

B7: the equilibrium dissociation constant (Kd) is 970 nM. The molecule B8 displayed a Kd of 1670 nM. The same measure, in the same setting: the value for B9 was 1460 nM; that for B10 was 240 nM; that for B11 was 2540 nM. As for B12, the dissociation constant (Kd) stood at 1800 nM. Turning to B13, the Kd was determined as 960 nM. Molecule B14 displayed a Kd of 750 nM. B15 registered a Kd of 3600 nM. Still for that read-out and setting: the value for B16 was 2400 nM. Same read-out and setting: the value for B17 was 1400 nM; that for B18 was 920 nM; that for B19 was 920 nM.

B20 had an equilibrium dissociation constant (Kd) of 1400 nM. Still for that read-out and setting: the value for B21 was 1060 nM; that for B22 was 430 nM. The same measure, in the same setting: the value for B23 was 2000 nM. B24 displayed a dissociation constant Kd of 1500 nM. Same read-out and setting: the value for B25 was 2700 nM; that for B26 was 550 nM.

Consider B27, for which the Kd is 5700 nM.

B28 returned a dissociation constant Kd of 1000 nM. The same measure, in the same setting: the value for B29 was 450 nM.

Another test concerns the target T2, TREM2 on human iPSC macrophages. The experiment in a line: cell-based or functional assay.
For B2, the “pSYK (µM)” value turned out to be 154 µM.

Turning to B3, the “pSYK (µM)” value came out at 8.5 µM. The same measure, in the same setting: the value for B4 was 4.2 µM; that for B5 was less than 3.4 µM. Same read-out and setting: the value for B7 was 7.2 µM; that for B10 was 12.7 µM. The same measure, in the same setting: the value for B12 was 4.5 µM; that for B13 was 13.9 µM; that for B14 was 4.4 µM. Regarding B15, the “pSYK (µM)” value was determined as 4.6 µM. On the same count and under the same terms, the value for B16 was 12.6 µM. With B17, the “pSYK (µM)” value worked out at 34.1 µM. Take B18: the “pSYK (µM)” value is 0.2 µM. In the case of B19, the “pSYK (µM)” value is 2.5 µM. With B20, the “pSYK (µM)” value is 3.8 µM. Turning to B22, the “pSYK (µM)” value was determined as 7.4 µM. Turning to B23, the “pSYK (µM)” value worked out at 16.6 µM. Turning to B24, the “pSYK (µM)” value is less than 3.4 µM. Still for that read-out and setting: the value for B25 was less than 3.4 µM; that for B26 was 8.6 µM. Same read-out and setting: the value for B27 was 9.9 µM.

Consider B28, for which the “pSYK (µM)” value came to 35.2 µM.

As for B29, the “pSYK (µM)” value was 1.8 µM.
